According to patent publication US20210145860A1:

Target: green fluorescent protein (GFP) [GFP: P42212]
Test: cell-based or functional assay

E3-ubiquitin ligase encoded by mRNA Construct G of Table 1 (ER signal-vhhGFP4-cereblon-FLAG-ER retention sequence), sequence (Q96SW2 whole entry): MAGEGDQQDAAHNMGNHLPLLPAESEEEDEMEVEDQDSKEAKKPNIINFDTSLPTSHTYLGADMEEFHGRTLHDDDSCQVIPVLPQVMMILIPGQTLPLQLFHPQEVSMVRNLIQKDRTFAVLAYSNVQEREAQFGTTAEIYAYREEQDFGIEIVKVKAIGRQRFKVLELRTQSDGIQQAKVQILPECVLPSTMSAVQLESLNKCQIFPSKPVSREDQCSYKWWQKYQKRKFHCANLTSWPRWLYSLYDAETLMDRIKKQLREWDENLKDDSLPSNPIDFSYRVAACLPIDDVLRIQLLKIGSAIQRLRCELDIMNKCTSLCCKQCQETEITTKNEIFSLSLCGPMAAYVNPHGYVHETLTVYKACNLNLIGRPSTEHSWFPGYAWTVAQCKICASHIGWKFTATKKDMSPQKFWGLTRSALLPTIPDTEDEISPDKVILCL

## E3-ubiquitin ligase encoded by mRNA Construct G of Table 1 (ER signal-vhhGFP4-cereblon-FLAG-ER retention sequence) (from UniProt Q96SW2 1-442)
  decrease in GFP mean fluorescence intensity (MFI), flow cytometry of HeLa cells at 10:1 Construct G:GFP RNA: 46%
